Data: patent EP4491230A1 (iOmx Therapeutics AG, dated 2025)

Biological target: recombinant LILRA1 ECD (human, UniProt O75019 17-461)
Test: BLI, IgG on AHC sensor, ECD as analyte

recombinant LILRA1 ECD, sequence (O75019 17-461 limits assumed): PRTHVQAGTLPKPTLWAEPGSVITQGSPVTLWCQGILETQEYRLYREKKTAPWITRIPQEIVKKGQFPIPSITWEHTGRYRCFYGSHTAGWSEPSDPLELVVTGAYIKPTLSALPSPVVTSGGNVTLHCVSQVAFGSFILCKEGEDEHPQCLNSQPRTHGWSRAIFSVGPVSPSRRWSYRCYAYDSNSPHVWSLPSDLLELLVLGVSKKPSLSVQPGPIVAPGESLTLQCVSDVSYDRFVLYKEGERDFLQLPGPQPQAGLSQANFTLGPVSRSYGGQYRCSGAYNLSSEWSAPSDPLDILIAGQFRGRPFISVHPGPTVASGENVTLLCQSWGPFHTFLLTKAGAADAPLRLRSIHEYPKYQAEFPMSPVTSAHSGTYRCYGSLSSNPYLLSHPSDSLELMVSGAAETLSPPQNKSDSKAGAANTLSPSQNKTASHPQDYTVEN

B1: A-046 (antibody, V domains shown)
VH: QVQLVQSGAEVKKPGSSVKVSCKASGGSFQSYAINWVRQAPGQGLEWMGGIIPGFSTANYAQKFQGRVTITADESTSTAYMELSSLRSEDTAVYYCAKDLGTYSSGWPYYYGMDVWGQGTTVTVSS
VL: SYELTQPPSVSVSPGQTASITCSGDKLGDKYASWYQQKPGQSPVLVIYQDSKRPSGIPERFSGSNSGNTATLTISGTQAEDEADYYCQLTHLTIYVFGGGTKLTVL
notes: HC of A-015 and LC of A-036; Tested as IgG
- binding result: no binding (tested: 900 nM of LILRA1 ECD)
